Laboratory results reported in paper PMC4081050.

Substrate: O=C(O)[C@@H](O)[C@H](O)[C@H](O)[C@@H](O)C(=O)O
Assay: purified protein
Conditions: dehydration, 20 mM HEPES pH 7.9, 5 mM MgCl2, 1 μM enzyme

B1: A9CG74 (GalrD-III) (Agrobacterium fabrum str. C58) (protein)
chain: MKIDRMRVFVTRDKDRPRVIVALDTDDGMTGWGECYNHGPDLALPPVLDYLYNFLAGQDPTRVEFLYNLMLQQNRFPPGALGLSAISALDHCLWDLAAKAVGVPVYKLLGGEVRNRIKVYAGVYTAPDAPAARDEFDRLNEGWGFSAFKLSPWRVDIHAHRWGEVVRSSAEYFRTLRETVRADYDIAFDAHAKIFEPSAARQLGNALAPYDPLFYEEPLRPENIEMYGDLKQGLNCTLATGESLYNRNEFLRLLQVKGADIIQPDICVVGGISEMRRIATLAEAHFVSIAPHNPMGPLATAVNVHFCAVQQNFRILEYRLPKGQVYAYGGNDLVKEEDVTRYVVDPYLPRDGYLELRPDRPGWGVEMDEKAMQEDGYVHWQRRVPKRPDGSYAFA
**Q.** Which results are given for B1?
**A.** Km: 80 ± 30 µM; kcat: 0.12 ± 0.05 s⁻¹; kcat/Km: 1500 M⁻¹ s⁻¹
